Publication PMC12141631
Positions count from the first letter of the chain named. Where two headings read alike, the source gives them in different places.

What was measured:
Assay in all cases: cryo-EM structure
[1] = target: human glycine receptor β subunit, βem construct (human)
[2] = target: human glycine receptor β subunit, βem construct (human); remark: listed apart in the source
[3] = target: human glycine receptor β subunit, βem construct (human); remark: listed apart in the source

B1: human glycine receptor α3 subunit, α3em construct (receptor)
chain: ARSRSAPMSPSDFLDKLMGRTSGYDARIRPNFKGPPVNVTCNIFINSFGSIAETTMDYRVNIFLRQKWNDPRLAYSEYPDDSLDLDPSMLDSIWKPDLFFANEKGANFHEVTTDNKLLRIFKNGNVLYSIRLTLTLSCPMDLKNFPMDVQTCIMQLESFGYTMNDLIFEWQDEAPVQVAEGLTLPQFLLKEEKDLRYCTKHYNTGKFTCIEVRFHLERQMGYYLIQMYIPSLLIVILSWVSFWINMDAAPARVALGITTVLTMTTQSSGSRASLPKVSYVKAIDIWMAVCLLFVFSALLEYAAVNFVSRQHKELLRFRRKRKNKTEAFDMDDEVRESRFSFTAYGMGPCLQAKDGMTPKGPNHPVQVMPKSPDEMRKVFIDRAKKIDTISRACFPLAFLIFNIFYWVIYKILRHEDIHQQQD
stoichiometry N [1]: 4 α3 per β
stoichiometry N [2]: 4 α3 per β

B2: human glycine receptor α3 subunit, α3S346Eem construct (phosphorylation mimetic) (receptor)
chain: B1 chain with S337E
stoichiometry N [1]: 4 α3 per β
stoichiometry N [3]: 4 α3 per β
